Reference: article PMC3397948, “Cytoplasmic Sulfurtransferases in the Purple Sulfur Bacterium Allochromatium vinosum: Evidence for Sulfur Transfer from DsrEFH to DsrC” (PLoS ONE, 2012)
Values joined by “and” are separate entries in the source; they are usually repeats but may differ in a detail not shown here. Identical values can stand only once.

How the values were obtained:
[1] = target: T1, DsrEFH (Allochromatium vinosum, UniProt O87896); assay: MALDI-TOF mass spectrometry, mass increase (persulfide); assay type: binding; details: 2 mM NaSH, 1 h, 30°C, 50 mM Tris-HCl pH 7.5, 100 mM NaCl; covalent; at DsrE-Cys78
T1 construct: gene dsrE; recombinant, amino-terminal His-tag; alpha2beta2gamma2 heterohexamer; with Intracellular sulfur oxidation protein DsrF; Intracellular sulfur oxidation protein DsrH

[2] = target: T2, DsrEFH from Allochromatium vinosum (DsrE2F2H2 heterohexamer), wild type (Allochromatium vinosum, UniProt O87896 1-130; O87897 1-136; O87898 1-102); assay: dynamic light scattering; DsrEFH (2 mg/ml) with or without DsrC (0.8 mg/ml), same ratio and conditions as for native gels, 30°C; apparent molecular mass from hydrodynamic diameter; details: both partners purified
T2 construct: DsrE, subunit of DsrEFH, Allochromatium vinosum; conserved active-site Cys78; DsrF, subunit of DsrEFH, Allochromatium vinosum; DsrH, subunit of DsrEFH, Allochromatium vinosum; conserved Cys20; source: overproduced and purified as described earlier [22], [8], [3]; not shown: His-tag (subunit inferred: DsrE), N-terminal, kept; copies: 2 + 2 + 2
T2 sequence (looked up) 1: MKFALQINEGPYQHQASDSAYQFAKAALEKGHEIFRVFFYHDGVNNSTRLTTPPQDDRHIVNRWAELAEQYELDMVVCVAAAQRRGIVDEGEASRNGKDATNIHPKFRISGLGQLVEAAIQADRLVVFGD
T2 sequence (looked up) 2: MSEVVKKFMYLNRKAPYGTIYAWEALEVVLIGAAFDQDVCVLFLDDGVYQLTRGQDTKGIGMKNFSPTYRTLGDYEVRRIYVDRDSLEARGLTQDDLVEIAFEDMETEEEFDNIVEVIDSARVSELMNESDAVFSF
T2 sequence (looked up) 3: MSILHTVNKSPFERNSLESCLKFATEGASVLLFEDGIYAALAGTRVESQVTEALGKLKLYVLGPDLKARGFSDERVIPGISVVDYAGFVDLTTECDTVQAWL

[3] = target: T2, DsrEFH from Allochromatium vinosum …; assay: native gel or EMSA; Blue-native PAGE (10-15%), 4°C, 6 mA; DsrEFH pre-incubated with DsrC in 1:2 ratio as for the native gel; masses from a calibration curve of standards; details: both partners purified

| Molecule | MALDI-TOF mass spectrometry, mass increase (persulfide) [1] | stoichiometry N [2] | stoichiometry N [3] |
| --- | --- | --- | --- |
| S [sulfide] | The persulfuration was attained by incubation with sulfide as well as with cysteine and IscS. |  |  |
| DsrC from Allochromatium vinosum, wild type (natural protein, UniProt O87899 1-112, looked up, DsrC, Allochromatium vinosum; conserved Cys100 and Cys111 (Cys111 in the penultimate position of the protein); Reduced with 25 uM TCEP before SPR; also called DsrC wild type; DsrC wt; source: overproduced and purified as described earlier [22], [8], [3]; not shown: His-tag, N-terminal, kept) MADTIEVDGKQFAVDEEGYLSNLNDWVPGVADVMAKQDNLELTEEHWDIINFLREYYEEYQIAPAVRVLTKAVGKKLGKEKGNSKYLYSLFPYGPAKQACRFAGLPKPTGCV |  | 1 DsrC:DsrEFH | 1 DsrC per DsrE2F2H2 heterohexamer and 2 DsrC per DsrE2F2H2 heterohexamer |
